Assay results as given in patent US10391180B2, “Self-assembling complex for targeting chemical agents to cells” (CEDARS-SINAI MEDICAL CENTER, priority 2007, dated 2019).

How the values were obtained:
HER2+ tumors = test: HerDox vs Dox biodistribution by Dox fluorescence imaging; type: in vivo, mice
Experimental: FIGS. 11 (A)-(B) illustrates preferential targeting of HerDox to HER2+ tumors. Tumor-bearing mice were injected with 0.75 nmoles of HerDox or Dox via the tail vein and imaged with a custom small animal imager. FIG. 11 (A) depicts imaging of live mice after IV delivery of HerDox. Tumors are indicated by arrows. FIG. 11 (B) depicts imaging of tumors and tissues harvested at 3 h after injection of HerDox or Dox. Fluorescence signal from Dox is pseudo-colored according to the color bar, with a shift toward 100 indicating high fluorescence intensity. FIG. 11 (B) illustrates a comparison of the targeted delivery of Dox to HER2+ breast cancer cells with minimal delivery to other organs and tissues using a delivery system in accordance with an embodiment of the present invention (left panel), as compared with Dox administered alone (right panel).
Dox emits a red fluorescence upon appropriate wavelength excitation, which can be used to detect biodistribution after systemic delivery of HerDox. Mice bearing 4-week old) tumors (˜700-800 mm^3) received a single tail vein injection of Dox or HerDox ([…] with respect to Dox cone) and images of live mice captured in real time, or of organs/tissues harvested at ˜3 h postinjection were acquired using a customized macro-illumination and detection system. Fluorescence was evident throughout the body at 10 min after HerDox injection, then quickly accumulated at the tumors by 20 min and remained detectable in the tumors up to 100 min after injection (FIG. 11 (A)).

breast cancer cells = test: HerDox trafficking, immunofluorescence against HerPBK10 in fixed cells; type: cell-based
Experimental: FIG. 15 illustrates HerDox trafficking in breast cancer cells. Cells incubated with HerDox at 37° C. were fixed at the indicated time points and processed for immunofluorescence using an antibody against HerPBK10. Images were captured using confocal microscopy under fluorescence and brightfield. Green, HerPBK10; Red, Dox. n, nucleus Bar, ˜8 microns.
To determine whether Dox remains attached to HerPBK10 during uptake, the inventors used immuno-fluorescence against HerPBK10. […] In fixed cells, nucleolar accumulation was not detectable as in the live cells (FIG. 14 (B)).

SKOV3 = test: Cytotoxicity on cell lines (Table I); type: cell-based; settings: 50% reduction in cell survival, mean ± 1 SD, read-out: EC50** (uM HerDox)
Experimental: (§1) FIGS. 17 (A)-(B) illustrates relative cell surface HER subunit levels and cytotoxicity on cell types. FIG. 17 (A) depicts a graph of relative cell surface HER subunit levels as measured by ELISA. Cells were incubated with anti-HER subunit antibodies followed by HRP-conjugated secondary antibodies using standard procedures. Relative cell numbers were measured by crystal violet staining and quantified by measuring crystal violet absorbance at 590 nm. Relative subunit levels are reported as the ELISA signal of each cell population normalized by the relative cell number, or Abs 450 run/590 nm. FIG. 17 (B) depicts toxicity to cells displaying differential HER2. Cytotoxicities from a range of HerDox doses were assessed on each cell line by metabolic assay and confirmed by crystal violet stain. CD50 values shown in log scale were determined by non-linear regression analyses of HerDox dose curves using a scientific graphing program and confirmed using a calculator. The relative HER2 level of each cell line is shown next to each CD50 value.

MDA-MB-435 = test: Cytotoxicity on cell lines (Table I); type: cell-based; settings: 50% reduction in cell survival, mean ± 1 SD, read-out: EC50** (uM HerDox)
Experimental: as §1

T47D = test: Cytotoxicity on cell lines (Table I); type: cell-based; settings: 50% reduction in cell survival, mean ± 1 SD, read-out: EC50** (uM HerDox)
Experimental: as §1

hearts of mice = test: Cardiac tissue histology and echocardiography; type: in vivo; settings: treated mice
From the text: FIGS. 12 (A)-(D) illustrates comparison of HerDox and Dox on (A) tumor growth, (B) animal weight, (C) cardiac tissue, and (D) cardiac function.
At 25 days following injections, tumors and organs were harvested and processed for histochemistry. It is established that Dox can induce acute and long-term cardiotoxicity, therefore, the inventors examined the hearts of mice treated with HerDox or Dox.

[1] = harvested at 3 h after injection
[2] = single tail vein injection, live imaging

B1: HerDox: non-covalent complex of HerPBK10, a small double-stranded nucleic acid and intercalated Dox (conjugate)
chain: LPPRLKEMKSQESAAGSKLVLRCETSSEYSSLRFKWFKNGNELNRKNKPQNIKIQKKPGKSELRINKASLADSGEYMCKVISKLGNDSASANITIVESNEIITGMPASTEGAYVSSESPIRISVSTEGANTSSSTSTSTTGTSHLVKCAEKEKTFCVNGGECFMVKDLSNPSRYLCKCQPGFTGARCTENVPMKVQNQEKAEELYMRRAAMYEEGPPPSYESVVSAAPVAAALGSPFDAPLDPPFVPPRYLRPTGGRNSIRYSELAPLFDTTRVYLVDNKSTDVASLNYQNDHSNFLTTVIQNNDYSPGEASTQTINLDDRSHWGGDLKTILHTNMPNVNEFMFTNKFKARVMVSRLPTKDNQVELKYEWVEFTLPEGNYSETMTIDLMNNAIVEHYLKVGRQNGVLESDIGVKFDTRNFRLGFDPVTGLVMPGVYTNEAFHPDIILLPGCGVDFTHSRLSNLLGIRKRQPFQEGFRITYDDLEGGNIPALLDVDAYQASLKDDTEQGGGGAGGSNSSGSGAEENSNAAAAAMQPVEDMNDHAIRGDTFATRAEEKRAEAEAAAEAAAPAAQPEVEKPQKKPVIKPLTEDSKKRSYNLISNDSTFTQYRSWYLAYNYGDPQTGIRSWTLLCTPDVTCGSEQVYWSLPDMMQDPVTFRSTRQISNFPVVGAELLPVHSKSFYNDQAVYSQLIRQFTSLTHVFNRFPENQILARPPAPTITTVSENVPALTDHGTLPLRNSIGGVQRVTITDARRRTCPYVYKALGIVSPRVLSSRTFKKKKKKKKKK
modifications: left off: small tags and cut ends
notes: non-covalent complex of HerPBK10, a small double-stranded nucleic acid and intercalated Dox
Question: With B1 as the molecule, how does the “Dox fluorescence in heart, spleen, lungs, and skeletal muscle” value (HER2+ tumors; [1]) read?
Answer: did not exhibit any fluorescence

Question: What about the “Dox fluorescence in kidneys” value (HER2+ tumors; [1]) of the same molecule?
Answer: barely detectable

Question: And the “Dox fluorescence in liver” value (HER2+ tumors; [1])?
Answer: substantially lower levels of fluorescence

Question: What about the “Dox fluorescence in tumors” value (HER2+ tumors; [1]) of the same molecule?
Answer: intense fluorescence

Question: And the “time by which fluorescence accumulated at the tumors” value (HER2+ tumors; [2])?
Answer: ≤ 20 min

Question: And the “time fluorescence remained detectable in the tumors” value (HER2+ tumors; [2])?
Answer: up to 100 min

Question: And the “location of Dox and HerPBK10 during uptake” value (breast cancer cells; 30 and 60 min)?
Answer: increasing levels of Dox accumulate in the nucleus while the majority of HerPBK10 remains in the cytoplasm

Question: And the “integrity of HerDox during uptake (colocalization of HerPBK10 and Dox)” value (breast cancer cells; 15 min of uptake)?
Answer: still intact

Question: And the EC50 (SKOV3)?
Answer: 0.18 ± 0.03 µM

Question: And the EC50 (MDA-MB-435)?
Answer: 0.74 ± 0.07 µM

Question: And the EC50 (T47D)?
Answer: 0.64 ± 0.04 µM

Question: What about the “echocardiogram: stroke volume, cardiac output, left ventricular internal dimension and volume” value (hearts of mice) of the same molecule?
Answer: no effect
